Test [1] has as its target T1, human PTHR, G protein-coupled conformation (RG) (Homo sapiens, UniProt Q03431).
T1 construct: expressed in transfected cells; host or cells: COS-7, transient (Fugene-6); membranes
T1 sequence (Q03431 27-593): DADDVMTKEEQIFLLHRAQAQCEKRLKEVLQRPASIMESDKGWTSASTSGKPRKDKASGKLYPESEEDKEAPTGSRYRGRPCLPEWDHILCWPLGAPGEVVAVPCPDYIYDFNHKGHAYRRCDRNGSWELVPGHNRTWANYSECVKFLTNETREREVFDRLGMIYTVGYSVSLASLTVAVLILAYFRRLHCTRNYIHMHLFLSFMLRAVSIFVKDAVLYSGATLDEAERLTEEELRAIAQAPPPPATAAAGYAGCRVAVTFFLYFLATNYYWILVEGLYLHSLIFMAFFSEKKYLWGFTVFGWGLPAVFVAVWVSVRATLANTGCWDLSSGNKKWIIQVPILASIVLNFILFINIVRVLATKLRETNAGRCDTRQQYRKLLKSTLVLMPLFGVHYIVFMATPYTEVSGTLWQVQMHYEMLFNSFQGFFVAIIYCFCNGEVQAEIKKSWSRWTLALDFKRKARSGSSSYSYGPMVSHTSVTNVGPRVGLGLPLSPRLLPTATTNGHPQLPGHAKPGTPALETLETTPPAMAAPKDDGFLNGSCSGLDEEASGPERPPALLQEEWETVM
As to the kind of experiment: Competition binding to RG conformation of hPTHR (COS-7 membranes, GαsND, 125I-[Aib1,3,M]PTH(1-15) tracer). To be noted: parent PTHrP(1-28)NH.

The target in test [2] is T2, human PTHR, G protein-uncoupled conformation (R^0) (Homo sapiens, UniProt Q03431).
T2 construct: expressed in transfected cells; host or cells: COS-7, transient (Fugene-6)
T2 sequence (Q03431 27-593): T1 sequence (Q03431 27-593)
As to the kind of experiment: Competition binding to R0 conformation of hPTHR (COS-7 membranes, GTPγS, 125I-PTH(1-34) tracer). To be noted: parent PTHrP(1-28)NH. As for the experimental part: Membranes were prepared from COS-7 cells transfected with the hPTHR alone. GTPγS ([…]) was added to the binding reactions so as to functionally uncouple receptor-heterotrimeric G protein complexes, thus enriching for the R^0 (and R) conformations, relative to RG.
Reactions contained a total membrane protein concentration of 20 to 100 μg/mL, and a total radioactivity concentration of approximately 150,000 cpm/ml. Unlabeled peptide ligands and/or GTPγS (Sigma-Aldrich Inc. St. Louis, Mo.) were added to the reactions as indicated.
Membranes, tracer radioligand, and various concentrations of unlabeled ligands and/or GTPγS were incubated in the wells for 90 minutes, following which, the reaction plates were processed by rapid vacuum filtration to separate bound from free radioligand, as described above. […] For both radioligands, the non-specific binding was determined in reactions containing a saturating concentration of the unlabeled analog of the radioligand. The specifically bound radioactivity was calculated as a percent of the radioactivity specifically bound in the absence of a competing ligand or GTPγS.
To assess the capacities of various unlabeled peptide ligands to bind to the G protein-uncoupled and G protein-coupled PTHR conformations (R^0 and RG, respectively), membranes were prepared from transiently transfected COS-7 cells and the following assay conditions.

Test [3] has as its system LLCPK1-B64 cells or SaOS-2 cells. As to the kind of experiment: cAMP screen of substituted PTHrP(1-28) analogs (% parent). To be noted: parent PTHrP(1-28)NH. It counts as cell-based. As for the experimental part:
Alanine substitution at position 18, 22, 25 and 26 increased activity in at least one cell type. These positions were further substituted to various types of amino acids, and cAMP activity was analyzed in LLCPK1-B64 cells (FIG. 27C) or SaOS-2 cells (FIG. 27D). Cells were treated with analogs at 3×10^−9M in the presence of IBMX for 30 minutes at room temperature. Responses for each analog were normalized to the response for the parent (native) PTHrP(1-28) peptide. Alanine substitutions were A^15 to A^17 (SEQ ID NO:152-154), A^18 (SEQ ID NO:34), A^19 to A^21 (SEQ ID NO:155-157), A^22 (SEQ ID NO:39), A^23 to A^25 (SEQ ID NO:158-160), A^26 (SEQ ID NO:46), and A^27 to A^28 (SEQ ID NO:161-162). Substitutions at position 18 were A^18 (SEQ ID NO: 34), G^18 (SEQ ID NO:163), S^18 (SEQ ID NO:35), M^18 (SEQ ID NO:36), L^18 (SEQ ID NO:164), F^18 (SEQ ID NO:37), N^18 (SEQ ID NO:165), E^18 (SEQ ID NO:38), and K^18 (SEQ ID NO:166). Substitutions at position 22 were A^22 (SEQ ID NO:39), G^22 (SEQ ID NO:167), and S^22 to K^22 (SEQ ID NO:40-45). Substitutions at position 26 were A^26 (SEQ ID NO:46), G^26 (SEQ ID NO:168), S^26 (SEQ ID NO:47), L^26 (SEQ ID NO:169), N^26 (SEQ ID NO:48), W^26 to E^26 (SEQ ID NO:170-171), and K^26 to R^26 (SEQ ID NO:49-50). Substitutions at position 25 were G^25 to S^25 (SEQ ID NO:172-173), L^25 (SEQ ID NO:51), N^25 (SEQ ID NO:174), W^25 (SEQ ID NO:52), E^25 (SEQ ID NO:175), and K^25 to R^25 (SEQ ID NO:53-54). […]

The subject of the next test is MC3T3-E1 cells. The experiment in a line: cAMP in MC3T3-E1 cells, dose-response. It counts as cell-based. To be noted: Table 3; read-out: dose-response cAMP in MC3T3-E1 (EC50). How it is done: In the 1-30 scaffold, Gly, Ser, Leu, Asn, Gln, Trp, Glu, and Lys were substituted at position 29; Gly, Ser, Leu, Asn, Asp, Trp, and Lys were substituted at position 30; and Ser, Leu, Asn, Val, Trp, Glu, and Lys were substituted at position 31. […] These peptides were tested for cAMP activity in MC3T3-E1 cells.

The record followed here is patent publication US9057727B2, “Screening methods using G-protein coupled receptors and related compositions” (The General Hospital Corporation, priority 2007, dated 2015).

Ends that are not written are not given here.

For the substance “A18,L22,K26-PTHrP(1-28) (AVSEHQLLHDKGKSIQDARRRLFLHKLI-NH2) [A18, L22, K26-PTHrP(1-28)NH]”, in test [1], the “screen human PIR RG (% parent)” value was 177 % parent. Moreover, the “screen human PIR R0 (% parent)” value in test [2] is reported as 160 % parent. Moreover, the “screen cAMP (% parent)” value in test [3] came to 350 % parent.

On to “A18,N22,K26-PTHrP(1-28) (AVSEHQLLHDKGKSIQDARRRNFLHKLI-NH2) [A18, N22, K26-PTHrP(1-28)NH]”, for which, in test [1], the “screen human PIR RG (% parent)” value worked out at 172 % parent. In addition, the “screen human PIR R0 (% parent)” value in test [2] is 139 % parent. In test [3], the “screen cAMP (% parent)” value was 326 % parent.

As to “A18,W22,K26-PTHrP(1-28) (AVSEHQLLHDKGKSIQDARRRWFLHKLI-NH2) [A18, W22, K26-PTHrP(1-28)NH]”, the “screen human PIR RG (% parent)” value in test [1] is reported as 115 % parent. For the same substance, in test [2], the “screen human PIR R0 (% parent)” value is on record as 136 % parent. Moreover, the “screen cAMP (% parent)” value in test [3] was 267 % parent.

One may read the EC50 as the concentration at which the effect is half-maximal. In the case of “AVSEHQLLHDKGKSIQDARRRAFLHKLIAE [A18, 22, K26-PTHrP(1-30)NH, A18,22,K26-PTHrP(1-30)]”, in the test on MC3T3-E1 cells, the EC50 is 0.058 nM.

On to “AVSEHQLLHDKGKSIQDARRRAFLHKLIAEI [A18, 22, K26-PTHrP(1-31)NH, A18,22,K26-PTHrP(1-31)]”, for which the EC50 with MC3T3-E1 cells was determined as 0.06 nM.

On to “AVSEHQLLHDKGKSIQDARRRAFLLKLIAEI [A18, 22, L25, K26-PTHrP(1-31)NH, A18,22,L25,K26-PTHrP(1-31)]”, for which the EC50 in the test with MC3T3-E1 cells stood at 0.2 nM.

Consider “AVSEHQLLHDKGKSIQDERRRAFLHHKIAE [E18, A22, K27-PTHrP(1-30)NH, E18,A22,K27-PTHrP(1-30)]”, for which the 50% effective concentration (EC50) with MC3T3-E1 cells was 0.082 nM.

As to “AVSEHQLLHDKGKSIQDERRRAFLLKLIAEI [E18, A22, L25, K26-PTHrP(1-31)NH, E18,A22,L25,K26-PTHrP(1-31)]”, the EC50 in the test on MC3T3-E1 cells came out at 0.112 nM.

Take “E18,K22,26-PTHrP(1-28) (AVSEHQLLHDKGKSIQDERRRKFLHKLI-NH2) [E18, K22, 26-PTHrP(1-28)NH]”: in test [1], the “screen human PIR RG (% parent)” value is reported as 208 % parent. In test [2], the “screen human PIR R0 (% parent)” value is 119.8 % parent. In addition, the “screen cAMP (% parent)” value in test [3] came to 374 % parent.

As to “E18,K22,A26-PTHrP(1-28) (AVSEHQLLHDKGKSIQDERRRKFLHALI-NH2) [E18, K22, A26-PTHrP(1-28)NH]”, the “screen human PIR RG (% parent)” value in test [1] is 192 % parent. Also, in test [2], the “screen human PIR R0 (% parent)” value amounted to 106.1 % parent. Further, in test [3], the “screen cAMP (% parent)” value stood at 315 % parent.

On to “E18,L22,A26-PTHrP(1-28) (AVSEHQLLHDKGKSIQDERRRLFLHALI-NH2) [E18, L22, A26-PTHrP(1-28)NH]”, for which the “screen human PIR RG (% parent)” value in test [1] is on record as 125 % parent. The “screen human PIR R0 (% parent)” value in test [2] is listed as 52.5 % parent. Besides, in test [3], the “screen cAMP (% parent)” value worked out at 139 % parent.

Turning to “E18,L22,K26-PTHrP(1-28) (AVSEHQLLHDKGKSIQDERRRLFLHKLI-NH2) [E18, L22, K26-PTHrP(1-28)NH]”, the “screen human PIR RG (% parent)” value in test [1] is listed as 152 % parent. In addition, the “screen human PIR R0 (% parent)” value in test [2] is 64.4 % parent. Further, the “screen cAMP (% parent)” value in test [3] was determined as 264 % parent.

For “E18,N22,A26-PTHrP(1-28) (AVSEHQLLHDKGKSIQDERRRNFLHALI-NH2) [E18, N22, A26-PTHrP(1-28)NH]”, in test [1], the “screen human PIR RG (% parent)” value stood at 140 % parent. Further, the “screen human PIR R0 (% parent)” value in test [2] is 53.7 % parent. Besides, in test [3], the “screen cAMP (% parent)” value stood at 171 % parent.

“E18,N22,K26-PTHrP(1-28) (AVSEHQLLHDKGKSIQDERRRNFLHKLI-NH2) [E18, N22, K26-PTHrP(1-28)NH]”: the “screen human PIR RG (% parent)” value in test [1] was determined as 147 % parent. For the same substance, in test [2], the “screen human PIR R0 (% parent)” value came out at 84.4 % parent. Further, in test [3], the “screen cAMP (% parent)” value amounted to 236 % parent.

“E18,S22,A26-PTHrP(1-28) (AVSEHQLLHDKGKSIQDERRRSFLHALI-NH2) [E18, S22, A26-PTHrP(1-28)NH]”: in test [1], the “screen human PIR RG (% parent)” value is reported as 132 % parent. In addition, in test [2], the “screen human PIR R0 (% parent)” value was 31.9 % parent. In addition, in test [3], the “screen cAMP (% parent)” value is 119 % parent.

Consider “E18,W22,A26-PTHrP(1-28) (AVSEHQLLHDKGKSIQDERRRWFLHALI-NH2) [E18, W22, A26-PTHrP(1-28)NH]”, for which, in test [1], the “screen human PIR RG (% parent)” value amounted to 116 % parent. Further, in test [2], the “screen human PIR R0 (% parent)” value is recorded as 18.8 % parent. Besides, in test [3], the “screen cAMP (% parent)” value amounted to 75 % parent.

With “E18,W22,K26-PTHrP(1-28) (AVSEHQLLHDKGKSIQDERRRWFLHKLI-NH2) [E18, W22, K26-PTHrP(1-28)NH]”, the “screen human PIR RG (% parent)” value in test [1] is recorded as 149 % parent. Moreover, in test [2], the “screen human PIR R0 (% parent)” value is 46.6 % parent. Further, the “screen cAMP (% parent)” value in test [3] worked out at 165 % parent.
